Substitutions are numbered along the chain they refer to.
B1: B75 (hybridoma-purified mAb) (antibody, V domains shown)
VH: QVQLVESGGGVVQPGRSLRLSCAASGFTFSSYGMHWVRQAPGKGLEWVAVIWYDGSYKYYADSVKGRFTISRDNSKNTLYLQMNSLRVEDTAVYYCAREGRTYYDFLTGYFDFWGQGTLVTVSS
VL: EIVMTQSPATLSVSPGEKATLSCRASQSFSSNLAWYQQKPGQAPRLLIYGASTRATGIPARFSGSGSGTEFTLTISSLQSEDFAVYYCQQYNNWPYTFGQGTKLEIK
B2: B90 (hybridoma-purified mAb) (antibody, V domains shown)
VH: QVQLVESGGGVVQPGRSLRLSCAASGFTFSSYGMHWVRQAPGKGLEWVAIIWYDGSKKYYADSVKGRFTISRDNSKNTLYLQMNSLRVEDTAVYYCARRGRVGATRDYYYYSMDVWGQGTTVTVSS
VL: AIQMTQSPSSLSASVGDRVTITCRASQGIRNDLGWFHQKPGKAPKLLIYAASSLQSGVPSRFSGSGSGTDFTLTISSLQPEDFATYYCLQDYVYPWTFGQGTKVEIK
B3: B28 (hybridoma-purified mAb) (antibody, V domains shown)
VH: QVQLVESGGGVVQPGRSVRLSCAATGFTFSSYGMHWVRQAPGKGLEWVAVIWFDGSNEYYADSVRGRFTISRDNSKNTLYLQMNSLRAEDTAVYYCARRGRVGVTRNYYYYNMDVWGQGTTVTVSS
VL: B2 VL with H37Q, A50P, G68D, V93N, Y94F, W96F, Q100P, E105D
B4: B60 (antibody, V domains shown)
VH: B2 VH with Y32H, I50V, K57N, Y59N, V88A, A104V, D107N, S112G
VL: B2 VL with H37Q, G41V, A50P, V93N
B5: B51 (hybridoma-purified mAb) (antibody, V domains shown)
VH: B2 VH with Y32H, I50V, K57N, Y59N, V88A, A104V, D107N, S112G
VL: B2 VL with H37Q, G41V, A50P, V93N
B6: B54 (hybridoma-purified mAb) (antibody, V domains shown)
VH: B2 VH with S31T, I50L, K65Q, N74S, A104V, D107N, S112G
VL: B2 VL with A25T, G28D, H37Q, L46F, A50P, S56G, T72I, V93N, Y94F, Q100E
B7: B24 (hybridoma-purified mAb) (antibody, V domains shown)
VH: EVQLLESGGGLVQPGGSLRLSCAASGFTFSSYAMTWVRQAPGEGLEWVSTISGSGIRTYYADSVKGRFTISRDNSKNTMYLQMNSLRAEDTAVYYCAKDGLTGDRRWYFDLWGRGTLVTVSS
VL: EIVMTQSPATLSLSPGERATLSCRASQSVSSSYFSWYQQKPGQAPRLLIYGASTRATGIPARFSGSGSGTDFTLTISSLQPEDFAVYYCQQDSNLPLTFGGGTKVEIK
B8: B19 reprep (=B24) (antibody, V domains shown)
VH: B7 VH
VL: B7 VL
B9: B73 (hybridoma-purified mAb) (antibody, V domains shown)
VH: QLQLQMSGPGLVKPSETLSLTCTVSGGSISSSSYYWGWIRQSPGKGLEWIGSIYYSGRTYYNPSLKSRVTISVDTSKNQFSLKLSSVTAADTAMYYCARRSSGRPYYWGQGTLVTVSS
VL: QAVVTQESALTTSPGGTVILTCRSSTGAVTTSNYANWVQEKPDHLFTGLIGETNNRAPGVPVRFSGSLIGDKAALTITGAQTEDDAMYFCALWYSTHWVFGGGTKLTVL

Tests used:
monomeric Aβ [1] = biological target: T1, monomeric Aβ (UniProt P05067 672-713); assay: BIAcore SPR
monomeric Aβ [2] = biological target: T1, monomeric Aβ; assay: SPR
[3] = biological target: T2, synthetic Aβ protofibrils (Aβ1-42-derived protofibrils) (UniProt P05067 672-713); assay: Octet BLI (Protein G sensor); PF 14.7 nM
[4] = biological target: T2, synthetic Aβ protofibrils …; assay: Octet BLI (Protein G sensor); PF 0.9167 nM
[5] = biological target: T2, synthetic Aβ protofibrils …; assay: Octet BLI (Protein G sensor); PF 3.67 nM
monomeric Aβ [6] = biological target: T1, monomeric Aβ; assay: BIAcore SPR; remark: listed apart in the source
monomeric Aβ [7] = biological target: T1, monomeric Aβ; assay: SPR; remark: listed apart in the source
[8] = biological target: T2, synthetic Aβ protofibrils …; assay: Octet BLI (Protein G sensor); PF 3.67 nM; LB
[9] = biological target: T2, synthetic Aβ protofibrils …; assay: Octet BLI (Protein G sensor); PF 14.7 nM; LB
[10] = biological target: T2, synthetic Aβ protofibrils …; assay: Octet BLI (Protein G sensor); PF 0.9167 nM; LB
monomeric Aβ [11] = biological target: T1, monomeric Aβ; assay: SPR; remark: listed apart in the source
monomeric Aβ [12] = biological target: T1, monomeric Aβ; assay: BIAcore SPR; remark: listed apart in the source
monomeric Aβ [13] = biological target: T1, monomeric Aβ; assay: SPR; remark: listed apart in the source

T1 sequence (P05067 672-713): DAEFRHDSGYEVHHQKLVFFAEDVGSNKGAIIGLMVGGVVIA
T2 sequence (P05067 672-713): as above

Row | Binder | Kd [3] | Kd [4] | Kd [5] | other results
1 | B1 |  |  |  | koff (monomeric Aβ [1]): 0.00238 s⁻¹
2 | B2 | < 1 pM | < 1 pM | < 1 pM | koff (monomeric Aβ [2]): 0.00722 s⁻¹
3 | B3 | 21800 pM |  | < 1 pM | koff (monomeric Aβ [6]): 9.41e-05 s⁻¹
4 | B4 |  |  |  | koff (monomeric Aβ [1]): 0.00356 s⁻¹
5 | B5 | < 1 pM | < 1 pM | < 1 pM | koff (monomeric Aβ [7]): 0.0144 s⁻¹
6 | B6 | < 1 pM | < 1 pM | < 1 pM | koff (monomeric Aβ [7]): 0.00526 s⁻¹
7 | B7 |  |  |  | Kd [8]: < 1 pM; Kd [9]: < 1 pM; Kd [10]: < 1 pM; koff (monomeric Aβ [11]): 0.0956 s⁻¹
8 | B8 |  |  |  | koff (monomeric Aβ [12]): 6.58e-07 s⁻¹
9 | B9 | < 1 pM | < 1 pM | < 1 pM | koff (monomeric Aβ [13]): 0.0012 s⁻¹

— patent US20230107034A1 (published 2023)
